Data taken from article PMC6018636, “Mutually exclusive acetylation and ubiquitylation of the splicing factor SRSF5 control tumor growth” (Nature Communications, 2018).

Target: T1, His-Smurf1 (UniProt Q9HCE7-2 1-731)
T1 construct: Smurf1, inserted into pET-28a; also called His-tagged Smurf1; source: Escherichia coli BL21, purified
Assay: pull-down; bacteria-expressed GST-tagged protein immobilised on glutathione-Sepharose 4B beads, incubated with His-tagged protein for 8 h at 4 °C; washed with GST-binding buffer (100 mM NaCl, 50 mM NaF, 2 mM EDTA, 1% NP-40); immunoblotting
Settings: both partners purified

T1 sequence (Q9HCE7 other isoform, or with tags, fused parts or gaps): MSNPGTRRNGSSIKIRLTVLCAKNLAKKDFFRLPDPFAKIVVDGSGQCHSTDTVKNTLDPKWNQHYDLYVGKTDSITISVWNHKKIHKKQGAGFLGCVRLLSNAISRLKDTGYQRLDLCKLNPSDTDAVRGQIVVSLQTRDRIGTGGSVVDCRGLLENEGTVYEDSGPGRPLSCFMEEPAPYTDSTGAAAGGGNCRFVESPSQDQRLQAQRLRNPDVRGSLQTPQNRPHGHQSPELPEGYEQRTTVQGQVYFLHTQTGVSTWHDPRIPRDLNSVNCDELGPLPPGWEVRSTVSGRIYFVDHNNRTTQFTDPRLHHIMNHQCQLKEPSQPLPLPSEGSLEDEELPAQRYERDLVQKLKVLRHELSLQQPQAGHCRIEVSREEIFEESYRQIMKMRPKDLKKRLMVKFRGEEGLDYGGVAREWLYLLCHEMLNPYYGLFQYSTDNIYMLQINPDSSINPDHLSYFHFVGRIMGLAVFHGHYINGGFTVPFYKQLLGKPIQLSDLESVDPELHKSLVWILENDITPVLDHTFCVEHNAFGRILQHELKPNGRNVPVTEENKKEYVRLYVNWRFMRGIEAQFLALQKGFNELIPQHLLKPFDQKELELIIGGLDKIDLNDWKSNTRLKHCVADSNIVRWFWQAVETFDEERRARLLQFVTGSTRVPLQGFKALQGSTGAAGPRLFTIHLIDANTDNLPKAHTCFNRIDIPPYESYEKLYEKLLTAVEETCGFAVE

B1: GST-SRSF5 (natural protein, UniProt Q13243 1-272, looked up)
chain: MSGCRVFIGRLNPAAREKDVERFFKGYGRIRDIDLKRGFGFVEFEDPRDADDAVYELDGKELCSERVTIEHARARSRGGRGRGRYSDRFSSRRPRNDRRNAPPVRTENRLIVENLSSRVSWQDLKDFMRQAGEVTFADAHRPKLNEGVVEFASYGDLKNAIEKLSGKEINGRKIKLIEGSKRHSRSRSRSRSRTRSSSRSRSRSRSRSRKSYSRSRSRSRSRSRSKSRSVSRSPVPEKSQKRGSSSRSKSPASVDRQRSRSRSRSRSVDSGN
notes: splicing factor SRSF5, inserted into pGEX-6P-1; also called GST–SRSF5 fusion protein; source: Escherichia coli BL21, purified; immobilised on glutathione-Sepharose 4B beads
binding result: binds
